Target: thrombin (human alpha-thrombin as purchased) (Homo sapiens) (UniProt P00734+P00734)
Assay: electrochemical impedance spectroscopy
Conditions: 5'-HS-C6 thiol spacer; EIS with 2.5 mM [Fe(CN)6]3-/4- in phosphate buffer (PB) pH 7.0 with 0.1 M K2SO4; pH 6.6-7.8 and 15-40 C also tested (best pH 7.0, 35 C); standard incubation …

TTTGGTTGGTGTGGTTGG [ThA thrombin aptamer (15-mer with dT3 spacer)]
binding signal: -28 % dRct/Rct0

From publication PMC4634408
